Experiment: soluble on expression in E. coli; label from the status in PepcDB or PDB records

Sequence	soluble on expression in E. coli
MVSRRVQALLDQLRAQGIQDEQVLNALAAVPREKFVDEAFEQKAWDNIALPIGQGQTISQPYMVARMTELLELTPQSRVLEIGTGSGYQTAILAHLVQHVCSVERIKGLQWQARRRLKNLDLHNVSTRHGDGWQGWQARAPFDAIIVTAAPPEIPTALMTQLDEGGILVLPVGEEHQYLKRVRRRGGEFIIDTVEAVRFVPLVKGELA	soluble
MKFVVASYGTRGDIEPCAAVGLELQRRGHDVCLAVPPNLIGFVETAGLSAVAYGSRDSQEQLDEQFLHNAWKLQNPIKLLREAMAPVTEGWAELSAMLTPVAAGADLLLTGQIYQEVVANVAEHHGIPLAALHFYPVRANGEIAFPARLPAPLVRSTITAIDWLYWRMTKGVEDAQRRELGLPKASTPAPRRMAVRGSLEIQAYDALCFPGLAAEWGGRRPFVGALTMESATDADDEVASWIAADTPPIYFGFGSMPIGSLADRVAMISAACAELGERALICSGPSDATGIPQFDHVKVVRVVSHAAVFPTCRAVVHHGGAGTTAAGLRAGIPTLILWVTSDQPIWAAQIKQLKVGRGRRFSSATKESLIADLRTILAPDYVTRAREIASRMTKPAASVTATADLLEDAARRAR	not soluble
GAMAMPMIEYLERFSLKAKINNTTNLDYSRRFLEPFLRGINVVYTPPQSFQSAPRVYRVNGLSRAPASSETFEHDGKKVTIASYFHSRNYPLKFPQLHCLNVGSSIKSILLPIELCSIEEGQALNRKDGATQVANMIKYAATS	soluble
VPTPKRPRGRPKGSKNKGAAKTRKT	soluble
MEQLRAAARLQIVLGHLGRPSAGAVVAHPTSGTISSASFHPQQFQYTLDNNVLTLEQRKFYEENGFLVIKNLVPDADIQRFRNEFEKICRKEVKPLGLTVMRDVTISKSEYAPSEKMITKVQDFQEDKELFRYCTLPEILKYVECFTGPNIMAMHTMLINKPPDSGKKTSRHPLHQDLHYFPFRPSDLIVCAWTAMEHISRNNGCLVVLPGTHKGSLKPHDYPKWEGGVNKMFHGIQDYEENKARVHLVMEKGDTVFFHPLLIHGSGQNKTQGFRKAISCHFASADCHYIDVKGTSQENIEKEVVGIAHKFFGAENSVNLKDIWMFRARLVKGERTNL	not soluble
MFNALLLTQQDKITHATVTQINDDQLPAGNVTVAVNYSSLNYKDGLAITGKGKIIREFPMVPGIDFAGTVLESADARYQVGDAVVLTGWGVGENHWGGMAQKARLNADWLVKLPQGLTSQQAMMIGTAGFTAMLCVQALIDGGIKPEDGEILVTGASGGVGSVAVTLLAQLGYKVVAVTGRVAQNGPLLEQLGASRVIDRQEFSEASRPLEKQLWVGAVDTVGSKVLAKVLAQMHYNGVVAACGLAGGFDLPTTVMPFILRNVRLQGVDSVSCPVEKRLAAWKKLAELLPASYYAQACHEISLSQVPEYAEAITNGQVTGRVVVKL	not soluble
MGSDKIHHHHHHMTEADLFVSQFLTEKLTALFPNVPVLSEENCHISFEERKNWKEYWLIDPLDGTQQFINRTDQFSVLITLVRKNKPVLSVIHAPILSTTYYAMCDFGTFKKQLDQVKKLTKNTTNFDRPLRIAVGATTSQEKVRSILPKDFPCEFVVVGSSSLKSGLVAEGAVDCYVRLGQTGEWDTAGAEVLLGETHGAIFDSHFEPLTYNQRETLINPHFVMVGDQSFDWRSIFQFN	not soluble
MGSDKIHHHHHHMKTLKGPAIFLAQFIGDTPPFDKLETMAAWVSSLGYAGVQMPTGGADSFFDLALAAESQTYCDDIAGLLAEYGLEITELSTHLQGQLVAVHPAYDELFDGFAPPELRGKPKERQAWAVEQVKAAAVASRRLGLKAHATFSGSLAWPYLYPWPQRPAGLIEEAFAELGRRWKPILDVFDENGVDAAYEIHPGEDLHDGATFERFLDEVGGHPRANILYDPSHFVLQQLDYLAYIDRYHERIKAFHVKDAEFRPSARSGVYGGYQGWVDRPGRFRSLGDGQVDFKAIFSKLAQYDYDGWAVLEWECALKHPEQGAAEGAPFIRDHIIRVTDKAFDDFASAGSEAGRNRRLLGL	not soluble
MAPHPEAAALLARSHRLGADPRNTNYAGGNASAKGTATDPVTGGDVELMWVKGSGGDLGTLTEAGLAVLRLDRLHALKGVYPGVEREDEMVAAFDYCLHGKGGAAPSIDTAMHGLVDAAHVDHLHPDSGIALACAADGEKLTAECFGDSVAWVPWRRPGFQLGLDIAAVKEANPQTIGCVLGGHGITAWGATAEECERNSLHIIRTAEAFLAERGKAEPFGPVIEGYAALEHHHHHH	not soluble
MGSDKIHHHHHHMSRYLEMLSLFGVAGAHPGGLAFSKAVLQKAAPSPDQPILDAGCGTGQTAAYLGHLLYPVTVVDKDPIMLEKAKKRFANEGLAIPAYQAELEHLPFSSESFSCVLSESVLSFSRLTSSLQEISRVLKPSGMLIGIEAALKKPMPPAEKKQMMDFYGFTCLHEESEWHKLLRSYGFQKTEAMSLLPEDMEFEPTTEMDLSQTIDPIYYDTLQTHYQLMQLYSEYMGHCIFIAYK	not soluble
MQRLSGLDASFLYLETSTQLLHVCGVIVLDVSTVPGGYTFAQLKAELGARTEAIPSFRRKLQDSKFNLDHPVWVEDTDFDIDRHCHRVALPAPGGRDELAELCGDIAGIPLDRARPLWEMWVIEGLEDGSVAVMSKMHHAGVDGITGANMMAQLCGLEPDAPRPGPDDSAESAGQASTLDIAVGGLLAVASRPAKLLRIVPQSLTLLPRWIGRARRGAAMPAPFTAPRTSLNGTLTSHRNLAFTQLDLEKVKTVKDAFDVKVNDVVLALCSGALRKYLQDRRELPDKSLVAIVPVSVHGKSDRPGTNQVSGMFTQLGTQIEDPAERLLAIGEHNSTSKEHNETLGASLLQDWSQFAGQAVFGTAMRLYSTLGLAERHPVVHNLVISNVPGPSVPLYFLGALIKAMYPLGPIFHGAGLNVTVMSLNGQLDVGLMSCPELAPHLWDLVDAFPAALDELVEAAGNRS	not soluble
MKINRHILDNGLRLVHSQDESTQMVALNVLYNVGARDEHPEHTGFAHLFEHLMFGGSVNIPDYDMPLQLAGGENNAWTNNDITNYYLTVPRQNVETGFWLESDRMLSLDFSERSLEVQRGVVMEEFKQRCLNQPYGDVGHLLRPLAYRAHTYQWPTIGKDLSHIANATLEEVKAFFFRFYAPNNAVLAVTGNISFEEAVALTEKWFGPIPRREVPQRNLPQEPEQTEERRLTVERNVPLDSLFMAYHMCSHDHPDYYAFDILSDLLSNGRSSRLNQRLVQQKQLFSSIDAYISGSVDAGLFHISGKPAAGVSLEQAEAAVREELERLQQEPVDEQELEKVKNKFESTQIFGNINYLNVATNLAWFELLGRAEDMEKEVERYRAVTAGQLQKVAQSAFRKENGVILYYKKQIS	not soluble
MGSDKIHHHHHHMKIAITGKGGVGKTFIASTLMRLFEKNGFKVIGVDCDPNPTLALAFGVEEEIVPLSKRHDIIEERTGAKPGTYGNIFKINPKVDDLIDKVGYKIGNITLLVMGTIEEGGEGCVCPASVLLRRLLRHLILKRDEVVILDMEAGIEHFGRKTIDTVDLMLIVIEPTKKSLITAKRMKKLANDLGIKNLGVIVNKVRNEDKELLKDIIKEELGLEVLGFVPYDEEVIKSEFLGKPINLDSKAAKEIEKIFNYIIKLKNTT	not soluble
MGSDKIHHHHHHMKKVLVIRNDKLGDFMLAWPAFAMLKASDPSLKLTALVPTYTAEIARACPYLDEVIIDVPKGDKAAFQRLVNDIKAQRFDAMISFFSNTHNAKLAWKCRIPYRLAPATKWVQFFYNHRLVQRRSQSAKPEFAYNLDLARRFLQDQSIAVVEPRPPYLSFPKSAVDFQREFLCLQLNVDSSKKWIFVHSGSGGSANNLSLAQYAALIRGLLAQFDAYVILTAGPNESEKAHELAGLVQDARVVVYDKNKGLVDFAQSLACADLFIAGSTGPLHLSGALNVPTIGFYPSRRSATPLRWQPINDEAKHLAFCPSNDKASQTDLSKISIEEKLAKMIRFITKVWHAADK	not soluble
MLIYEGHIDKLIRRGQEKGLDIYNLIRTAVFNPVEHYGLNVGLLREGDPADFIIVDNLKSFNILSTFIDGECVYENGKVLFPLEHHHHHH	not soluble
SLAANMYRVGDYVYFENSSSNPYLIRRIEELNKTASGNVEAKVVCFYRRRDISNTLIMLADKHAKEIEEESETTVEADLTDKQKHQLKHRELFLSRQYESLPATHIRGKCSVALLNETESVLSYLDKEDTFFYSLVYDPSLKTLLADKGEIRVGPRYQADIPEMLLEGESDEREQSKLEVKVWDPNSPLTDRQIDQFLVVARAVGTFARALD	soluble
MPATAYERVVYKSPSEYHYMKVCLEFQEHGVGLNVAQFKQLLVSALRDLFGEVGAALPVDVLTYDEKTLSAILRICSSGLVKLWSSLTLFGAYKSKKCAFRVIQVSPFLLALSGNSREQVLD	not soluble
MAHHHHHHMCNGKFAFLFSDFGNHVIEESYYKVNEGQRKGETGANKAAMQIQYCKLSHFLKVPFENFDKKTNKIIYPMFALILFEQNKQLNKNDKSIDEQEFHTFCDQFSLSKWKESLVEISKTYRVGFSPTCSIMGGVTSQEIRKFVSKQHESIPNFCVFDMNQNVVCTSMIS	not soluble
MGSDKIHHHHHHMKRLDGIPESMLIPLIARAKEYEYEKPIIKDALSKKIFDGLDDIYKNVTCDDMSQIGISIRSVIIDSVTKRLIKDNKNLIVINIGCGLDTRFQRFNNEKISWIDLDVPESIEIRKTFFKETDSYKMIAKSMLDYSWIEDVINYKFFNSKSNILFIFEGVLMYFDESVMTKLLHTIIKKFGDHNLTFAIEFCSKTIANNTKRHKSVSKLSSQPVFKYGYNDLNELDKVLPNKMKVINEYNYFDYHKKRWGLFGYCRYIPYLKKRLNNKIVIMEYKPAKLITHN	not soluble
MSEELPNITTSEKKSFLQSLFSCLFQSEPKNREDLVEVIRDSLENELIDNDTKEMMEGVMEISELRVRDIMIPRPQIVYIDANLPLEACVDLIIESAHSRFPVILDDGKDNIQGMLLAKDLLKYLRSDSAPFDMQKMLRPAVIVPESKRVDRMLKEFRSERFHMAIVVDEFGAVSGLVTIEDILEQIVGDIEDEFDEEEIEPIRQLSRHTYAVSALTDIEKFNAVFATDFVDEEVDTIGGLVMQAFSHLPQRGEQVNLHGIDFKVTSADSRRLIQLRVTVSDEQLEQMERITDLEE	not soluble
MGSDKIHHHHHHMRKMRVLAIGNVFNPSGVSVHIINVLKELVKMGDEVFLYVPSFLVRRNYEVLKDLENAHISVHHSVYETKEAEEVGTLPYFIRSHTVYLRWNNLGEDRKYIDELKDIKPDVIYDMHEDSITLRLSYHIAKRLNKPLVKLLHDEPFRNSFGRGYRKFLGIKGLAYDTLMWMFYKFDKRAFLRSINDGILRGIAGVSKAPFYLSGIEEIAHSVRLKVYEVGNAFNKDIIYKYRRTRGKEDYAVFFARLVPQKGIKELPKIADLLDSKIVVFGKIFNENDRSILMSHPKIEYKGYRPIEEVYNTVAKAKVLIYPSHQDGFSLVVLDTLALGTSVVAYDIPAIRFVFSSLKPVRTVREYDIKEMASTANSILRMKDEEYESEHEDEKVKKFLELHSSWANVAKETHDFLSAFL	not soluble
MKMGENVTEYFEFAGVKNTENTLKYAIERAKLGISDIVVASSYGETAKMLFDMLEKENLNVNVVVVTYHQGFSGPDVVAMPENVKKDLEKRGATVFSGTHALSGVERGISKRFGGYGPVEVIAQTLKTLGQGVKVCYEVTVMAADAGLVSTKKEIIAIGGSSRGADSAVVIRPSNMNTFFDIELRELICMPKNKKKHEMAGDPLEHHHHHH	soluble
MTLMGFRVKKVRNHVLWDKENDDRNAFTVIIGNNGCGKTELLIDTCNKYHSYYTSALLDKDTHVASAVHYLREDFSPHNWKTVEREYGHRLPRKLIAASTSQFEKFKANWSVRNDLVPSGFYAYIGSKPYMPSLSPSTRIASKAIQQLLGAEYFEERKHKALVGFLSKFDFGQKLLLKFELTFPNEDLENIQNQSLTEPETQLILKNAYIEHDEMELVELLGYCERIIEAPAFALTVGNQNLNLIHLKGSEQKPFSKLIISRMLRAGLITLSSIQTMKDKSLINDQSTVNIESSAISSLSKRSSGEQ	not soluble
